Source: patent US20170305994A1 (Novo Nordisk, published 2017)

T1: human DR3 with the death domain deleted (ΔM339-P417 of SEQ ID NO:1), expressed on CHOK1SV cells (human, UniProt Q93038 25-338)
T1 construct: also called truncated DR3; hDR3 expressing CHO cells
T1 sequence: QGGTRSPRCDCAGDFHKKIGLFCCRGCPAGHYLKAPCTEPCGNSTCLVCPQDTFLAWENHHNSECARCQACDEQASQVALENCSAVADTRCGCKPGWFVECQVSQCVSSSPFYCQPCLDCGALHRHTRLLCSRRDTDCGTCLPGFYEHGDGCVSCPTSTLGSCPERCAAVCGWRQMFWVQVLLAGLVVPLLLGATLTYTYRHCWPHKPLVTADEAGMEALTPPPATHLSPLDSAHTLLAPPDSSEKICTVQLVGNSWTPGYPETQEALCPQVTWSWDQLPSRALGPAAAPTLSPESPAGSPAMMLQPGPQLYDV

T2: human DR3 (full length, on cells) (human, UniProt Q93038 25-417)
T2 sequence: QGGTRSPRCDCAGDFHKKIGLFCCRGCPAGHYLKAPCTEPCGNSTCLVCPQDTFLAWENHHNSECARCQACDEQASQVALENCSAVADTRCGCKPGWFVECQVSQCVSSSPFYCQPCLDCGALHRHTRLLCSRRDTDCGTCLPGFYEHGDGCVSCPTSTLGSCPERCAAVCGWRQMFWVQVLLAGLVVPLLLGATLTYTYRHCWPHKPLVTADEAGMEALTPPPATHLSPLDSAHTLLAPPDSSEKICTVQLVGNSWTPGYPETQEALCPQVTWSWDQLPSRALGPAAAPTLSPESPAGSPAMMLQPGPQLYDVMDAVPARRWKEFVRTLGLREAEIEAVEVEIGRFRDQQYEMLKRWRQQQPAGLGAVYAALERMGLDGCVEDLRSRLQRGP

T3: cynomolgus DR3 (on HEK293 reporter cells) (cynomolgus, UniProt A0A2K5WJ09 98-464)
T3 sequence: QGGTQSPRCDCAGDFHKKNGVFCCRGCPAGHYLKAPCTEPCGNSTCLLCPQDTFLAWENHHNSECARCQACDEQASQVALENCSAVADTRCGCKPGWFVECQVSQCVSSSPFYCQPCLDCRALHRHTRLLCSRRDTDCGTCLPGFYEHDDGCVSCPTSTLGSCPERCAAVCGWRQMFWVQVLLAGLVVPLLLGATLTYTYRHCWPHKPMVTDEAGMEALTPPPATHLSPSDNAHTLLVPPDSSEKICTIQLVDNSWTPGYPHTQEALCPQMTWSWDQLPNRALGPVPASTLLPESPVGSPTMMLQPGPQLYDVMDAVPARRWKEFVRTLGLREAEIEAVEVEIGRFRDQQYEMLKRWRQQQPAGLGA

T4: marmoset DR3 (transiently expressed on HEK293 cells) (marmoset, UniProt U3ENN5 27-418)
T4 sequence: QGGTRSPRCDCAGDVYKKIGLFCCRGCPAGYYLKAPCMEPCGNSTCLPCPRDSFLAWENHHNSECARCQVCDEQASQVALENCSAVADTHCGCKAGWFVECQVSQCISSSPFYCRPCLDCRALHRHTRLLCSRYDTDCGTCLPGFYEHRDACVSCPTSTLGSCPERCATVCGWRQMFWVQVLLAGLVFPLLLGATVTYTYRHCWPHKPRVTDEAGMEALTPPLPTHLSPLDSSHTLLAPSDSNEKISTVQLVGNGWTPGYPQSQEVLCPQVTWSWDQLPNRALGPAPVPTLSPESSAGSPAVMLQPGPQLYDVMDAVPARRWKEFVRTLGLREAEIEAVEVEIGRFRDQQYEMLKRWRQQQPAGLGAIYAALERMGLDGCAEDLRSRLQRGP

B1: 0148 (chimeric Fab of 5F13, human IgG4 constant domain, hinge Cys->Ser) (Fab, V domains shown)
VH: EVQLVESGGGLVKPGGSLKFSCAVSGFTFSSYVMSWVRQTPEKRLEWVAAISSDSTYTYYLDSVKGRFTISRDNAKNTLYLQMSSLRSEDTAMYYCARQTRSDAMDYWGQGTSVTVSS
VL: DIVLTQSPASLAVSLGQRATISCRASESVDNYGNSFMHWYQQKPGQPPKLLIYRASNLESGIPARFSGSGSRTDFTLTINPVEADDVAIYYCQQSNEDPLTFGAGTKLELKR
notes: IgG4-Ser, chimeric
B2: 0152 (chimeric Fab of 50F191, human IgG4 constant domain, hinge Cys->Ser) (Fab, V domains shown)
VH: EVQLVESGGGLVEPGGSLKLSCAASGFTFSTYAMSWVRQSPEKRLEWVAEISSGDSYTYYPDIVTGRFTISRDDAKNTLFLEMSSLRSEDTAIYYCVRDQDYRYDGYYAMDHWGQGTSVTVSS
VL: DIVLTQSPASLAVSLGQRATISCRASESVEHYGTSLMQWYQQKPGQPPKLLIYAASNVESGVPARFSGRGSGPDFSLNIHPVEEDDIAMYFCQQSRRIPWTFGGGTKLEIKR
notes: IgG4-Ser, chimeric
B3: 0123 (chimeric Fab of 27F44, human IgG4 constant domain, hinge Cys->Ser) (Fab, V domains shown)
VH: EVKLVESGGGLVKPGGSLKLSCSASGFAFSNYDMSWVRQTPEKRLEWVAAFSSDGYTFYPDSLKGRFTISRDNARNTLYLQMSSLGSEDTALYCCARHADYANYPVMDYWGQGTSVTVSS
VL: DIVLAQSPASLLVSLGQRATISCRASKSVSTSGYSYMHWYQQKPGQPPKLLIYLASNLESGVPARFSGSGSGTDFTLNIHPVEEEDAATYYCQHSRELPLTFGAGTMLELKR
notes: murine variable domains, human IgG4 constant domain (IgG4-Ser)

What was measured:
[1] = biological target: T1, human DR3 with the death domain deleted …; assay: FACS on DR3 expressing cells; competitor Mab 0107
[2] = biological target: T5, DR3 (ECD)-Fc (human); assay: HX-MS with hDR3 ECD-Fc
T5 construct: ECD of DR3, a linker with a TEV cleavage site and the Fc part of human IgG4; dimeric fraction used; also called DR3-Fc; hDR3-Fc
Description: The Leap robot was equipped with two temperature controlled stacks maintained at 20° C. for buffer storage and HX reactions and maintained at 2° C. for storage of protein and quench solution, respectively. The Waters HDX system furthermore contained a temperature controlled chamber holding the pre- and analytical columns, and the LC tubing and switching valves at 1° C. A separately temperature controlled chamber holds the pepsin column at 25° C. […] The resulting peptides were trapped and desalted on a VanGuard pre-column BEH C18 1.7 μm (2.1×5 mm (Waters Inc.)). Subsequently, the valves were switched to place the pre-column inline with the analytical column, UPLC-BEH C18 1.7 μm (1×100 mm (Waters Inc.)), and the peptides separated using a 9 min gradient of 10-40% B delivered at 200 μl/min from the nanoAQUITY UPLC system (Waters Inc.). The mobile phases consisted of A: 0.1% formic acid and B: 0.1% formic acid in CH₃CN. The ESI MS data, and the separate elevated energy (MS^E) experiments were acquired in positive ion mode using a Synapt G2 mass spectrometer (Waters Inc.).
All HX reactions were carried out at 20° C. and contained […] hDR3 in the absence or presence of […] Fab thus giving a 5 fold molar excess of Fab. […]

[3] = biological target: T2, human DR3 (full length, on cells); assay: cell-based or functional assay
[4] = biological target: T1, human DR3 with the death domain deleted …; assay: FACS on DR3 expressing cells; competitor Mab 0121
[5] = biological target: T1, human DR3 with the death domain deleted …; assay: flow cytometry competition: Fab vs TL1A on hDR3-expressing CHO cells
[6] = biological target: T2, human DR3 (full length, on cells); assay: cell-based or functional assay; remark: listed apart in the source
[7] = biological target: T6, DR3 (CRD1)-Fc (human); assay: SPR
T6 construct: Amino acids 25-71 of DR3 fused to the Fc domain of human IgG4; purified to exclude oligomers (mainly dimeric)
Text: The extracellular moiety of DR3 is located at the aminoterminal portion of DR3 and is comprised of four TNF receptor cysteine-rich domains. Several fusion proteins were expressed and purified which contained parts of the extracellular domain of DR3 of increasing length fused to the Fc domain of a human IgG4. The DR3 proteins used for SPR analysis had been purified to exclude oligomerized material. These proteins were immobilized to a CM5 sensor chip using amine coupling chemistry. Binding of anti-DR3 antibodies termed 0070, 0072, 0073 and 0076, to the different DR3-Fc fusion proteins was tested by means of plasmon surface binding measurements on a Biacore T100 instrument (GE Healthcare). All of these antibodies inhibit binding of TL1A to DR3 in a FACS assay. These 4 antibodies bound to recombinant DR3 (CRD1)-Fc protein that contained only the aminoterminal CRD (SEQ ID NO:2) comprised of amino acids 25-71 of DR3.
The same analysis was also performed for some of the Fab fragments.

[8] = biological target: T2, human DR3 (full length, on cells); assay: cell-based or functional assay; remark: listed apart in the source
[9] = biological target: T3, cynomolgus DR3 (on HEK293 reporter …); assay: cell-based or functional assay
[10] = biological target: T4, marmoset DR3 (transiently expressed on …); assay: cell-based or functional assay
[11] = biological target: T3, cynomolgus DR3 (on HEK293 reporter …); assay: cell-based or functional assay; remark: listed apart in the source

Binder | molar ratio Mab/Fab from which the Fab inhibits [1] | binding result [2] | max % inhibition of TNFalpha, donor 1 [3] | max % inhibition of TNFalpha, donor 2 [3] | molar ratio Mab/Fab from which the Fab inhibits fully [4] | IC50 [5] | max percentage inhibition [5] | IC50, TNFalpha inhibition, TL1A-activated CD4+ T cells, donor 1 [3] | IC50, TNFalpha inhibition, average (n 1) [3] | IC50 at 40 ng/ml TL1A, I5 reporter cells [6] | binding result [7] | IC50, TNFalpha inhibition, TL1A-activated CD4+ T cells, donor 2 [3] | IC50, TNFalpha inhibition, average (n 22) [3] | IC50 at 40 ng/ml TL1A, transient reporter HEK293 [8] | IC50 at 40 ng/ml TL1A, transient reporter HEK293 [9] | IC50 at 40 ng/ml TL1A, transient reporter HEK293 [10] | IC50 at 40 ng/ml TL1A, Lyda20 reporter cells [11]
B1 | 100 Fab per Mab (molar ratio Mab/Fab 1:n) | binds | 9.5% | -8.5% | 3 Fab per Mab (molar ratio Mab/Fab 1:n) | 9.22 nM | 33% |  |  |  |  |  |  |  |  |  | 
B2 |  |  | 73.5% |  |  | 0.512 nM | 53% | 0.183 nM | 0.183 nM | 2.1 nM | binds |  |  |  |  |  | 
B3 |  |  | 83.5% | 75.9% |  | 0.443 nM | 80% | 0.301 nM |  | 0.188 nM | binds | 0.32 nM | 0.208 nM | 0.33 nM | 99 nM | 0.323 nM | 236 nM
